Where a chain is given by its changes, count along the chain named. Names and notes keep the numbering of the source.
What was measured:
[1] = biological target: T1, mouse FcγRIIb (mouse, UniProt P08101 40-217, limits assumed); assay: SPR (Biacore), protein L capture, pH 7.4, 25 C
T1 construct: Bought; also called mFcgRIIb
T1 sequence (looked up): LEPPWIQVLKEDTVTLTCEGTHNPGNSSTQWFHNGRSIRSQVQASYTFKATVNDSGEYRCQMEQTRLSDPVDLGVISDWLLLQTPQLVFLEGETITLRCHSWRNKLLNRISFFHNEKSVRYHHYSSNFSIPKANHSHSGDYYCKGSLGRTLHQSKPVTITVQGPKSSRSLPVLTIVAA

[2] = biological target: T2, mouse FcγRIII (mouse, UniProt P08508 31-215); assay: SPR (Biacore), protein L capture, pH 7.4, 25 C
T2 construct: Bought; also called mFcgRIII
T2 sequence (looked up): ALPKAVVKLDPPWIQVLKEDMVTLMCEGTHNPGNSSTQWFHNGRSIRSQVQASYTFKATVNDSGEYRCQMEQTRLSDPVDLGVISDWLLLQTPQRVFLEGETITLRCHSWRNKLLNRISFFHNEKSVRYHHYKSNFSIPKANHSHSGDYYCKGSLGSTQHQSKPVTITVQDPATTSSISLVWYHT

[3] = biological target: T3, mouse FcγRI (mouse, UniProt P26151 25-297); assay: SPR (Biacore), protein L capture, pH 7.4, 25 C
T3 construct: Bought; also called mFcgRI
T3 sequence (looked up): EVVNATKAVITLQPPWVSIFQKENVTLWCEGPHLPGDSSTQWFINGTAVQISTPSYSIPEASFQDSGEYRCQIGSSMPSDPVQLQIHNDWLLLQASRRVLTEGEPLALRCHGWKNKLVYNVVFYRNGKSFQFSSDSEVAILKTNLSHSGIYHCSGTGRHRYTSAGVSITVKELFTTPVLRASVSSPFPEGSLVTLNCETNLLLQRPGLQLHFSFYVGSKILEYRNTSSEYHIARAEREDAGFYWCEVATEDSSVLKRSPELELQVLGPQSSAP

[4] = biological target: T4, human FcγRIIb (human, UniProt P31994 43-217); assay: SPR (Biacore); KD of parent IL6R-B3/IL6R-L for FcγRIIb divided by KD of the variant for FcγRIIb
T4 construct: also called FcγIIB
T4 sequence: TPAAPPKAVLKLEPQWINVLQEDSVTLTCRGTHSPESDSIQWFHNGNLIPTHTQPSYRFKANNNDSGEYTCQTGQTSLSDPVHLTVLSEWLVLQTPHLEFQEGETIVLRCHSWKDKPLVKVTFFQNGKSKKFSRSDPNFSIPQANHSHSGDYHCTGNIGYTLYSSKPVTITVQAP
Text: (§1) Furthermore, KD(IIaR)/KD(IIb) and KD(IIaH)/KD(IIb) in the table respectively represent the value obtained by dividing the KD value of each variant for FcγRIIaR by the KD value of each variant for FcγRIIb, and the value obtained by dividing the KD value of each variant for FcγRIIaH by the KD value of each variant for FcγRIIb.

[5] = biological target: T5, human FcγRIIa type R (allotype R131) (human, UniProt P12318 36-217); assay: SPR (Biacore), antibody captured on the chip, FcγR as analyte
T5 construct: also called FcγRIIaR; FcγRIIa(R)
T5 chain: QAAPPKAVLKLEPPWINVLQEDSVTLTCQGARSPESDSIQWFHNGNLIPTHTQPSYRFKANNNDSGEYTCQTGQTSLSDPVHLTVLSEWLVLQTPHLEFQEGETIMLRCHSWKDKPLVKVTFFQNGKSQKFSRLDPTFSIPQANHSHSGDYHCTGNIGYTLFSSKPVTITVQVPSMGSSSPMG

[6] = biological target: T6, human FcγRIIIa type V (allotype V158) (human, UniProt P08637 17-208, limits assumed); assay: as above
T6 construct: the assay used allotype V158; also called FcγRIIIaV; FcγRIIIa(V)
T6 sequence (P08637 other isoform, or with tags, fused parts or gaps limits assumed): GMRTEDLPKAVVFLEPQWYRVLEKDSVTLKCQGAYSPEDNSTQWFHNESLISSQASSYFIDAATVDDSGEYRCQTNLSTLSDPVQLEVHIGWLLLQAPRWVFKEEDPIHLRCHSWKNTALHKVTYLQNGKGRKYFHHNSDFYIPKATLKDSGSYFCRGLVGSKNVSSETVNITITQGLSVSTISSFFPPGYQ

[7] = biological target: T7, human FcγRIIa type H (allotype H131) (human, UniProt P12318 36-217); assay: as above
T7 construct: also called FcγRIIaH; FcγRIIa(H)
T7 sequence: T5 chain with R133H

[8] = biological target: T8, human FcγRIIb (human, UniProt P31994 43-217, limits assumed); assay: SPR (Biacore) KD; ratio against the KD for FcγRIIaR
T8 construct: also called hFcgRIIb
T8 sequence: T4 sequence

[9] = biological target: T8, human FcγRIIb; assay: SPR (Biacore) KD; ratio against the KD for FcγRIIaH
[10] = biological target: T9, human FcγRIIIa(F) (human, UniProt P08637 17-208, limits assumed); assay: SPR (Biacore T100), antibody captured by Protein A, FcγR at 2 µmol/L, 25 C
T9 construct: also called hFcgRIIIa(F)
T9 sequence (P08637 other isoform, or with tags, fused parts or gaps limits assumed): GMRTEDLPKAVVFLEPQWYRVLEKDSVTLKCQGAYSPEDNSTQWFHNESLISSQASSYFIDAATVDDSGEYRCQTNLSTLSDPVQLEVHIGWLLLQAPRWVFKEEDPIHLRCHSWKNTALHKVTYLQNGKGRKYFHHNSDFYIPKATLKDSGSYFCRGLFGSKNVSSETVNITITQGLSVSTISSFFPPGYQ
Experimental: (§2) Next, interaction between these antibodies and FcγR was analyzed kinetically using the Biacore T100 (GE Healthcare). The interaction was measured at a temperature of 25° C. using HBS-EP+ (GE Healthcare) for the running buffer. The Series S Sensor Chip CM5 (GE Healthcare) was used after immobilizing Protein A by amine coupling. […] Antibody captured on the chip was washed by allowing 10 mM glycine-HCl (pH 1.5) to react following measurement. The chip regenerated in this manner was used repeatedly. The dissociation constant KD (mol/L) was calculated from the association rate constant ka (L/mol/s) and dissociation rate constant kd (1/s) as calculated by global-fitting the measurement results with a 1:1 Langmuir binding model using the Biacore

[11] = biological target: T10, human FcγRIIa(H) (human, UniProt P12318 36-217); assay: as above
T10 construct: also called hFcgRIIa(H); FcγRIIa type H
T10 sequence: T5 chain with R133H
Experimental: as §2

[12] = biological target: T11, human FcγRIIa(R) (human, UniProt P12318 36-217); assay: SPR (Biacore), captured antibody, FcγR analyte; bound/captured amount vs control x100
T11 construct: also called FcgRIIaR; FcγRIIa type R
T11 chain: T5 chain
Experimental: Interaction between each modified antibody and Fcγ receptor prepared in the manner described above was analyzed using the Biacore T100 (GE Healthcare), Biacore T200 (GE Healthcare), Biacore A100 or Biacore 4000. HBS-EP+ (GE Healthcare) was used for the running buffer, and measurements were carried out at 25° C. The chips used were chips in which antigen peptides, Protein A (Thermo Scientific), Protein A/G (Thermo Scientific) or Protein L (ACTIGEN or BioVision) were immobilized on the Series S Sensor Chip CM5 (GE Healthcare) or Series S Sensor Chip CM4 (GE Healthcare) by amine coupling, or chips in which preliminarily biotinylated antigen peptides were allowed to interact and then immobilized on the Series S Sensor Chip SA (certified) (GE Healthcare). The target antibodies were captured on these sensor chips, Fcγ receptor diluted with the running buffer was allowed to interact, followed by measurement of the amount of bound antibody. The amounts bound were compared between antibodies. However, since the amount of Fcγ receptor bound depends on the amount of captured antibody, the values used for comparison were first corrected by dividing the amount of Fcγ receptor bound by the captured amount of each antibody. Through reaction with 10 mM glycine-HCl at pH 1.5, the sensor chips were regenerated by washing off antibody captured on the sensor chips and used repeatedly.

[13] = biological target: T12, human FcγRIIIa(F) (human, UniProt P08637 17-208, limits assumed); assay: SPR (Biacore), antibody captured on Protein L, human FcgR as analyte, pH 7.4, 25 C; amount normalised to captured antibody
T12 construct: also called hFcgRIIIa(F); allotype F158
Experimental: (§3) Binding activity between the antibodies and human FcγRIa, FcγRIIa(H), FcγRIIa(R), FcγRIIb and FcγRIIIa(F) (hereinafter referred to as human FcγRs) was evaluated using the Biacore T100 or T200 (GE Healthcare). The antibodies being tested were captured by Protein L (ACTIGEN) that was immobilized in suitable amounts on the CM4 Sensor Chip (GE Healthcare) by amine coupling. Next, the diluted human FcγRs and a running buffer used as a blank were injected to allow interaction with the antibodies captured on the sensor chip. A buffer consisting of 20 mmol/L ACES, 150 mmol/L NaCl and 0.05% (w/v) Tween 20 (pH 7.4) was used for the running buffer, and this buffer was also used to dilute the human FcγRs. 10 mmol/L glycine-HCl (pH 1.5) was used to regenerate the sensor chip. All measurements were carried out at 25° C.
(§4) Binding activity to human FcγRs can be represented by the relative binding activity to human FcγRs. Antibody was captured by Protein L, and the amount of change in a sensorgram before and after the antibody was captured was defined as X1. Next, human FcγRs were allowed to interact with the antibody, and the value obtained by subtracting binding activity of human FcγRs represented as the amount of change in a sensorgram before and after allowing the running buffer to interact with antibody captured by Protein L (ΔA2) from the value obtained by multiplying by 1500 the value obtained by dividing the binding activity of human FcγRs represented as the amount of change in a sensorgram before and after that interaction (ΔA1) by the captured amount (X) of each antibody, was divided by the captured amount of each antibody (X) followed by multiplying by 1500 to obtain the binding activity of the human FcγRs (Y) (Equation 2).

[14] = biological target: T13, human FcγRIIb (human, UniProt P31994 43-217, limits assumed); assay: as above
T13 construct: also called hFcgRIIb; FcγIIB
T13 sequence: T4 sequence
Experimental: as §3, §4

[15] = biological target: T14, human FcγRIIb (human, UniProt P31994 43-217, limits assumed); assay: ratio of this variant's SPR KD for FcγRIIaH to its KD for FcγRIIb
T14 construct: also called FcγIIB; hFcgRIIb
T14 sequence: T4 sequence
Text: as §1

[16] = biological target: T14, human FcγRIIb; assay: ratio of this variant's SPR KD for FcγRIIaR to its KD for FcγRIIb
Text: as §1

[17] = biological target: T15, human FcγRIIa type R (human, UniProt P12318 36-217); assay: SPR KD of this variant's stronger FcγRIIa allotype binding divided by that of parent IL6R-B3/IL6R-L
T15 construct: also called FcγRIIaR; FcγRIIa(R)
T15 chain: T5 chain
Text: as §1

[18] = biological target: T14, human FcγRIIb; assay: SPR KD for FcγRIIb of parent IL6R-B3/IL6R-L divided by that of this variant
Text: as §1

[19] = biological target: T15, human FcγRIIa type R; assay: SPR (Biacore), captured antibody, FcγR as analyte, 25 C
Text: as §1

B1: mPM1-mIgG1-mF39 (antibody)
heavy: DVQLQESGPVLVKPSQSLSLTCTVTGYSITSDHAWSWIRQFPGNKLEWMGYISYSGITTYNPSLKSRISITRDTSKNQFFLQLNSVTTGDTSTYYCARSLARTTAMDYWGQGTSVTVSSAKTTPPSVYPLAPGSAAQTNSMVTLGCLVKGYFPEPVTVTWNSGSLSSGVHTFPAVLQSDLYTLSSSVTVPSSTWPSETVTCNVAHPASSTKVDKKIVPRDCGCKPCICTVKEVSKVFIFPPKPKDVLYITLEPKVTCVVVDISKDDPEVQFSWFVDDVEVHTAQTQPREEQFNSTFRSVSELPIMHQDWLNGKEFKCRVNSAAFPAPIEKTISKTKGRPKAPQVYTIPPPKEQMAKDKVSLTCMITDFFPEDITVEWQWNGQPAENYKNTQPIMDTDGSYFVYSKLNVQKSNWEAGNTFTCSVLHEGLKNHHTEKSLSHSPGK
light: DIQMTQTTSSLSASLGDRVTISCRASQDISSYLNWYQQKPDGTIKLLIYYTSRLHSGVPSRFSGSGSGTDYSLTINNLEQEDIATYFCQQGNTLPYTFGGGTKLEIKRADAAPTVSIFPPSSEQLTSGGASVVCFLNNFYPKDINVKWKIDGSERQNGVLNSWTDQDSKDSTYSMSSTLTLTKDEYERHNSYTCEATHKTSTSPIVKSFNRNEC
notes: copies: 2 + 2
[1]
  binding result: no binding
[2]
  binding result: no binding
[3]
  binding result: no binding

B2: IL6R-BP185/IL6R-L (antibody, human IgG1)
heavy: QVQLQESGPGLVKPSETLSLTCAVSGHSISHDHAWSWVRQPPGEGLEWIGFISYSGITNYNPSLQGRVTISRDNSKNTLYLQMNSLRAEDTAVYYCARSLARTTAMDYWGEGTLVTVSSASTKGPSVFPLAPSSKSTSGGTAALGCLVKDYFPEPVTVSWNSGALTSGVHTFPAVLQSSGLYSLSSVVTVPSSSLGTQTYICNVNHKPSNTKVDKKVEPKSCDKTHTCPPCPAPDYLGDDSVFLFPPKPKDTLMISRTPEVTCVVVDVSHEDGEVKFNWYVDGVEVHNAKTKPREEQYNSTYRVVSVLTVLHQDWLNGKEYKCKVSNAALPKPIEKTISKAKGQPREPQVYTLPPSRDELTKNQVSLTCLVKGFYPSDIAVEWESNGQPENNYKTTPPVLDSDGSFFLYSKLTVDKSRWQQGNVFSCSVMHEALHNHYTQESLSLSP
light: DIQMTQSPSSLSASVGDRVTITCRASQDISSYLNWYQQKPGKAPKLLIYYTSRLHSGVPSRFSGSGSGTDFTFTISSLQPEDIATYYCQQGNTLPYTFGQGTKVEIK
notes: Anti-human IL-6 receptor human IgG1 variant; copies: 2 + 2
[4]
  KD(IIb) of the parent polypeptide/KD(IIb) of the altered polypeptide: 44.5
[5]
  Kd: 0.68 µM
[6]
  Kd: 36 µM
[7]
  Kd: 7.3 µM

B3: IL6R-F11/IL6R-L (antibody, human IgG1)
heavy: not shown
light: B2 light
notes: copies: 2 + 2
[8]
  KD value for FcγRIIaR/KD value for FcγRIIb: 0.7
[9]
  KD value for FcγRIIaH/KD value for FcγRIIb: 0.7

B4: IgG1-v2 (antibody)
heavy: not shown
light: B2 light
notes: copies: 2 + 2
[10]
  binding (RU): ~5 RU
[11]
  binding (RU): ~10 RU

B5: IgG1-v1 (antibody)
heavy: not shown
light: B2 light
notes: copies: 2 + 2
[10]
  binding (RU): ~2.5 RU
[11]
  binding (RU): ~2.5 RU

B6: IL6R-B3/IL6R-L (antibody, human IgG1)
heavy: not shown
light: B2 light
notes: copies: 2 + 2
[8]
  KD value for FcγRIIaR/KD value for FcγRIIb: 0.3
[9]
  KD value for FcγRIIaH/KD value for FcγRIIb: 0.2

B7: GpH7-B3 G237P/GpL16-k0 (antibody, human IgG1)
heavy: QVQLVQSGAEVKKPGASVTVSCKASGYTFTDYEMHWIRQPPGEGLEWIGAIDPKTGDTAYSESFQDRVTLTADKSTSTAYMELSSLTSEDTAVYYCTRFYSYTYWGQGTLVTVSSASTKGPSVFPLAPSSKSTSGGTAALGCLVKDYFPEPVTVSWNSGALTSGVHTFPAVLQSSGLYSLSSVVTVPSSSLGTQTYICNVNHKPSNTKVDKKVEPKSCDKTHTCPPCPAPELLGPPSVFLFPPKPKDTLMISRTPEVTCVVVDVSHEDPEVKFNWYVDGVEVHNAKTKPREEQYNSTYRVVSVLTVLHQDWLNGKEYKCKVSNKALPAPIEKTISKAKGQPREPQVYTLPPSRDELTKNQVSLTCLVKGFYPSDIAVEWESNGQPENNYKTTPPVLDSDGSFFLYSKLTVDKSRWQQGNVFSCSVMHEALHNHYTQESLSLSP
light: DIVMTQSPLSLPVTPGEPASISCQASESLVHSNRNTYLHWYLQKPGQSPQLLIYKVSNRFSGVPDRFSGSGSGTDFTLKISRVEAEDVGVYYCSQNTHVPPTFGQGTKVEIE
notes: B3 variant of anti-glypican-3 IgG1; substitution in EU numbering; also called B3 variant
[12]
  relative binding activity: 8 % of GpH7-B3/GpL16-k0

B8: GpH7-B3 S239R/GpL16-k0 (antibody, human IgG1)
heavy: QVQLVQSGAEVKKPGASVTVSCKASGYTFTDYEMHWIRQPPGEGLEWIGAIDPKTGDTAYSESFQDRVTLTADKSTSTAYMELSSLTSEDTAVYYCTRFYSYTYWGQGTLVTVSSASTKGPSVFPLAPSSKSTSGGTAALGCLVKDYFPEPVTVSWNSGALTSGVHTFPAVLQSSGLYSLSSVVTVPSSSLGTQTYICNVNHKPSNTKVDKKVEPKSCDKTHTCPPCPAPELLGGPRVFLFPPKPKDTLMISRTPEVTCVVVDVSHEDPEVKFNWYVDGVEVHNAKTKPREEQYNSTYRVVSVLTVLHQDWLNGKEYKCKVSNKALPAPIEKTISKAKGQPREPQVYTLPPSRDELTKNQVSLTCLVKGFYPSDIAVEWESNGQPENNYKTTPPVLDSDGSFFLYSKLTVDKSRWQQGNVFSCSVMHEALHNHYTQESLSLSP
light: B7 light
notes: as for B7
[12]
  relative binding activity: 8 % of GpH7-B3/GpL16-k0

B9: antibody containing VH3-IgG1-F1324 for the heavy chain and L(WT)-CK for the light chain (antibody)
heavy: QVQLQESGPGLVKPSETLSLTCAVSGHSISHDHAWSWVRQPPGEGLEWIGFISYSGITNYNPSLQGRVTISRDNSKNTLYLQMNSLRAEDTAVYYCARSLARTTAMDYWGEGTLVTVSSASTKGPSVFPLAPSSKSTSGGTAALGCLVKDYFPEPVTVSWNSGALTSGVHTFPAVLQSSGLYSLSSVVTVPSSSLGTQTYICNVNHKPSNTKVDKKVEPKSCDKTHTCPPCPAPEAAGGPSVFLFPPKPKDTLYISRTPEVTCVVVDVSHEDPEVKFNWYVDGVEVHNAKTKPREEQYNSTYRVVSVLTVLHQDWLNGKEYKCKVSNKALPAPIEKTISKAKGQPREPQVYTLPPSRDELTKNQVSLTCLVKGFYPSDIAVEWESNGQPENNYKTTPPVLDSDGSFFLYSKLTVDKSRWQQGNVFSCSVMHEALHYHVTQKSLSLSP
light: not shown
[13]
  BINDING AMOUNT (RU): 5.83 RU
[14]
  BINDING AMOUNT (RU): 3.85 RU

B10: IL6R-BP089/IL6R-L (antibody, human IgG1)
heavy: B2 heavy with D235E, D239G, G273P
light: B2 light
notes: copies: 2 + 2
[15]
  KD (IIaH)/KD (IIb): 51.9
[16]
  KD (IIaR)/KD (IIb): 16.6
[17]
  KD value for the stronger of the FcγRIIaR- and FcγRIIaH-binding activities of the variant/that of the parent polypeptide: 6.3

B11: antibody containing VH3-IgG1-F1326 for the heavy chain and L(WT)-CK for the light chain (antibody)
heavy: B9 heavy with T252V, T309Q, V310P, Q313A
light: not shown
[13]
  BINDING AMOUNT (RU): 9.51 RU
[14]
  BINDING AMOUNT (RU): 5.46 RU

B12: IL6R-BP144/IL6R-L (antibody, human IgG1)
heavy: B2 heavy with D235E, Y236L, G273P, K332A
light: B2 light
notes: copies: 2 + 2
[15]
  KD (IIaH)/KD (IIb): 45.8
[16]
  KD (IIaR)/KD (IIb): 8.7
[18]
  KD(IIb) of the parent polypeptide/KD(IIb) of the altered polypeptide: 5.9
[17]
  KD value for the stronger of the FcγRIIaR- and FcγRIIaH-binding activities of the variant/that of the parent polypeptide: 6.9
[19]
  Kd: 2.9 µM

Reference: patent publication US20140105889A1 (published 2014)
